Results on one molecule are retold here after patent US20170008949A1 (Hoffmann-La Roche, published 2017).

Test [1] deals with recombinant glycosylated human PAI-1 (active), produced in insect cells (human, UniProt P05121 24-402, glycosylated (sites not given)). As to the kind of experiment: cell-based or functional assay.
The target of test [2] is recombinant non-glycosylated human PAI-1 (active), produced in E. coli as N-terminal 6xHis-tagged fusion … (human, UniProt P05121 24-402). As to the kind of experiment: cell-based or functional assay.
Sequence of recombinant non-glycosylated human PAI-1 (active), produced in E. coli as N-terminal 6xHis-tagged fusion … (P05121 24-402 limits assumed): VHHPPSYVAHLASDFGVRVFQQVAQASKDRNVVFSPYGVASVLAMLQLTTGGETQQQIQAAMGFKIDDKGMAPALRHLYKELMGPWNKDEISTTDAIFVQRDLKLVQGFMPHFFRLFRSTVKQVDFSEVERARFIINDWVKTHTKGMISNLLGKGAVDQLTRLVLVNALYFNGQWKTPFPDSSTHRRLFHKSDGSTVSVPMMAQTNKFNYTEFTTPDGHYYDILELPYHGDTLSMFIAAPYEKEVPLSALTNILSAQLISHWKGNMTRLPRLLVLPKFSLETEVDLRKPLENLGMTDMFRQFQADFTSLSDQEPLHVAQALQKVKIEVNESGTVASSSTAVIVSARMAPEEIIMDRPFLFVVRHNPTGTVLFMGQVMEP

Sequence of recombinant glycosylated human PAI-1 (active), produced in insect cells (P05121 24-402 limits assumed): as above

B1: PAI1-0046 (reference PAI-1 latency inducing antibody with a human IgG4 SPLE Fc-region) (antibody, V domains shown)
VH: QVQLVQSGAEVKKPGASVKVSCKASGYTFTNYGMNWVRQAPGQGLEWMGWINTYTGEPTYTDDFKGRFTMTLDTSISTAYMELSRLRSDDTAVYYCAKDVSGFVFDYWGQGTLVTVSS
VL: DIVMTQSPDSLAVSLGERATINCKSSQSLLNIIKQKNCLAWYQQKPGQPPKLLIYWASTRESGVPDRFSGSGSGTDFTLTISSLQAEDVAVYYCQQYYSYPYTFGQGTKLEIKR
In the case of B1, the “IC50 (µM) vs. human PAI-1, PAI-1 inhibition assay (residual rPA serine protease activity)” value came to 0.065 µM in test [1] and 0.005 µM in test [2].
